Experiments:
[1] = molecular target: T1, endogenous TET3 in C4-2CON and C4-2ENZ-R cells (human, UniProt O43151 1-1795, limits assumed); test: co-immunoprecipitation of endogenous proteins, C4-2CON and C4-2ENZ-R cells
T1 construct: Endogenous protein in cell lysate for co-IP

[2] = molecular target: T2, endogenous TET1 in C4-2CON and C4-2ENZ-R cells (human, UniProt Q8NFU7 1-2136, limits assumed); test: as above
T2 construct: Endogenous protein in cell lysate for co-IP
T2 sequence (Q8NFU7 whole entry): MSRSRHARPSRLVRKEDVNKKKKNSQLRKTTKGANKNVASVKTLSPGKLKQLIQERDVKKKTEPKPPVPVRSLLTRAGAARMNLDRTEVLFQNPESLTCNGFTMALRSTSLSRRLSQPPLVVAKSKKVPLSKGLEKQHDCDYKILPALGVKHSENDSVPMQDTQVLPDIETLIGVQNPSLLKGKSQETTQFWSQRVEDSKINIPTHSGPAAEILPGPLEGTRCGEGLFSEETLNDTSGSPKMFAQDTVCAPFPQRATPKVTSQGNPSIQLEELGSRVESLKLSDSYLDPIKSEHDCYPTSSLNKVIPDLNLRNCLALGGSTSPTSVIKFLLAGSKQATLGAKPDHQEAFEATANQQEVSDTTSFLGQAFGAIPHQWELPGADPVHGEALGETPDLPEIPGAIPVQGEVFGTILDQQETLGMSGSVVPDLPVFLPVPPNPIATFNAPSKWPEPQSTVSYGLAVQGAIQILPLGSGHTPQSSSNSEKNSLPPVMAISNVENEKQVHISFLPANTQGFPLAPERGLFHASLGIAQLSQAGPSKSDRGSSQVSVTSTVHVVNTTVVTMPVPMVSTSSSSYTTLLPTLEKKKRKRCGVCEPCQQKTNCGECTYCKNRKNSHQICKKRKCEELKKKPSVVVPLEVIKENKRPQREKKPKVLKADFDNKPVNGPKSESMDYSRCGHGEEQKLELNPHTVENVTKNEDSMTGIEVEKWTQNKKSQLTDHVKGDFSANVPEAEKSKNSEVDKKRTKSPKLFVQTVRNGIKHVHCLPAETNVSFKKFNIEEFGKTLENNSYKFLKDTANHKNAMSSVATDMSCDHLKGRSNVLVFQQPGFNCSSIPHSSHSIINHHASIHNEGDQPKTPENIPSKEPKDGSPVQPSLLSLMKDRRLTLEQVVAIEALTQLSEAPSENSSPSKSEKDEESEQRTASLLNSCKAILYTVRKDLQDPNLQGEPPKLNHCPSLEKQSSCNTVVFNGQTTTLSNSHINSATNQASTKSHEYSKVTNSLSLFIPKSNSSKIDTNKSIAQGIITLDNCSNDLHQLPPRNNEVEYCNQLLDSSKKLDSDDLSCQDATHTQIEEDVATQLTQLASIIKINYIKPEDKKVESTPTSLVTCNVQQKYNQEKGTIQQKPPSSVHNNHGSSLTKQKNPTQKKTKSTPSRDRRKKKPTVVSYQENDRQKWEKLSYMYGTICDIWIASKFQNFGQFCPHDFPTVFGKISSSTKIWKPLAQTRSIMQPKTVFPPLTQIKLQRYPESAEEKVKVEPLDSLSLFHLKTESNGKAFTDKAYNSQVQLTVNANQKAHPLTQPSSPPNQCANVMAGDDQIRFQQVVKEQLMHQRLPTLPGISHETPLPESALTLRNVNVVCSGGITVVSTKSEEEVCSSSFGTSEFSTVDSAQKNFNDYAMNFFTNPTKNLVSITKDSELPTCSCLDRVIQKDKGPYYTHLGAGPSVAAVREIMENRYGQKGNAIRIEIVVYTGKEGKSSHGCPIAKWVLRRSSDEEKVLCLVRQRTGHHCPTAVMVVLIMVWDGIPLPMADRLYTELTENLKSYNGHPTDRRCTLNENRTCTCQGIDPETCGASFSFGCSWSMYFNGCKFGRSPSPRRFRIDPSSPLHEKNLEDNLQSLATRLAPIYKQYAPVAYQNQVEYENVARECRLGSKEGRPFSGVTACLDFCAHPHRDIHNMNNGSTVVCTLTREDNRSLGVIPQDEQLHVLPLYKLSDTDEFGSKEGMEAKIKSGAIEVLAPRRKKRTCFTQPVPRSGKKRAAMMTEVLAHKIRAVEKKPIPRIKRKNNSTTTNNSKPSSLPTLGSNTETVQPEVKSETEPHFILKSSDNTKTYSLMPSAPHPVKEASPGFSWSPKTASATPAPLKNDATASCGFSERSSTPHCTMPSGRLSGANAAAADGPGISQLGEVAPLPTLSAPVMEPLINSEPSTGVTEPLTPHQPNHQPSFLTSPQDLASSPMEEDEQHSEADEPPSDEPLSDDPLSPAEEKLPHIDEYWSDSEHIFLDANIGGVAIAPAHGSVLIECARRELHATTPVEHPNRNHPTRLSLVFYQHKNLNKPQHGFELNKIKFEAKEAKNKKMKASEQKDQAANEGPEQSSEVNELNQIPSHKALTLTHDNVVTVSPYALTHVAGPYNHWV

T1 sequence (O43151 whole entry): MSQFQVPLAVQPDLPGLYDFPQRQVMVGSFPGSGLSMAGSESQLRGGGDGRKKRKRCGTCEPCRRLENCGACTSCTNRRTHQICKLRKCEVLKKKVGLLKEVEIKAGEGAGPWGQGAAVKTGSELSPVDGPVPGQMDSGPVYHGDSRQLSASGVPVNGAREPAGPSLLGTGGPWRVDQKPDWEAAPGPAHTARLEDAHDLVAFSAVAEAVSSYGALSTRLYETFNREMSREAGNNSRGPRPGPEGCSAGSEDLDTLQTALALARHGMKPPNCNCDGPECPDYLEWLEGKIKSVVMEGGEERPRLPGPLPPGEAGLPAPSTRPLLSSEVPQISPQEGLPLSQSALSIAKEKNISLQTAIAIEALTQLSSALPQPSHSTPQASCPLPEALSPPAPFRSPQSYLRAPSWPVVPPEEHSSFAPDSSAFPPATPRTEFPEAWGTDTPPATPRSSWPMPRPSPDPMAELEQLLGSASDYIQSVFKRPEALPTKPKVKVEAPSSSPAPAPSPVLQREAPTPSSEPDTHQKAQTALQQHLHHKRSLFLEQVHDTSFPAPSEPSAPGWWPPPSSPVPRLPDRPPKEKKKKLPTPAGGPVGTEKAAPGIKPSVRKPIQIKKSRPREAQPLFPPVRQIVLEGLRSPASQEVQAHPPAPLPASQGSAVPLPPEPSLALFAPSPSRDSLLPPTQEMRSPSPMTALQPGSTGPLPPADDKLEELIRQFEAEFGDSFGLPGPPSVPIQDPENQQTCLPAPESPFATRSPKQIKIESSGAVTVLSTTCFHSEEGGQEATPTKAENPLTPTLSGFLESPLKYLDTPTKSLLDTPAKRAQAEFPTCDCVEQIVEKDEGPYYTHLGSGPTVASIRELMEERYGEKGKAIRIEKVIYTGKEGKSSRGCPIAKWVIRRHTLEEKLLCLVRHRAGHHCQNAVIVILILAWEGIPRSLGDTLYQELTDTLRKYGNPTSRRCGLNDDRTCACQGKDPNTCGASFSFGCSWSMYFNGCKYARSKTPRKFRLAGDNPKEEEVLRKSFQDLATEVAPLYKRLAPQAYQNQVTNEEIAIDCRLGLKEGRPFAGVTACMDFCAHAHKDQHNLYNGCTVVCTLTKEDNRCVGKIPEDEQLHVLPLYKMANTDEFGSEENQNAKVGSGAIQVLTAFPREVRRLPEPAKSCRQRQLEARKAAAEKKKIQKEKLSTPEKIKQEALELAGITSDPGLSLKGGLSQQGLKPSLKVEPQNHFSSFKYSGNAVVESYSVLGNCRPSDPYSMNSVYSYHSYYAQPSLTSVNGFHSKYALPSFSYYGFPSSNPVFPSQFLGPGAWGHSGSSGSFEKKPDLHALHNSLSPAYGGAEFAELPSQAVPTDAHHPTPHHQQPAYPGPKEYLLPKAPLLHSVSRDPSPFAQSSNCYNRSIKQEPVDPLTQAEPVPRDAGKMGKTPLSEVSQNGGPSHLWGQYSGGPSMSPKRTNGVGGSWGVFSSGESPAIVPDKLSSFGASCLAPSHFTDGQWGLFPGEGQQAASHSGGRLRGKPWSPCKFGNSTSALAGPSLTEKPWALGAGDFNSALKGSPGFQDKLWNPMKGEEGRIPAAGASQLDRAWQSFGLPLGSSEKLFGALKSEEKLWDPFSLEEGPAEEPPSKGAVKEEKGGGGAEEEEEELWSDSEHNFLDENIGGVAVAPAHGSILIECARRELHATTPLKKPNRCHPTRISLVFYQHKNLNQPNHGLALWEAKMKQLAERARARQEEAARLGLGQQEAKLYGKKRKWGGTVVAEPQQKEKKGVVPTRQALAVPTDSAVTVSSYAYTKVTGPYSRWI

B1: endogenous AR in C4-2CON and C4-2ENZ-R cells (receptor, human, UniProt P10275 1-920, looked up)
chain: MEVQLGLGRVYPRPPSKTYRGAFQNLFQSVREVIQNPGPRHPEAASAAPPGASLLLLQQQQQQQQQQQQQQQQQQQQQQQETSPRQQQQQQGEDGSPQAHRRGPTGYLVLDEEQQPSQPQSALECHPERGCVPEPGAAVAASKGLPQQLPAPPDEDDSAAPSTLSLLGPTFPGLSSCSADLKDILSEASTMQLLQQQQQEAVSEGSSSGRAREASGAPTSSKDNYLGGTSTISDNAKELCKAVSVSMGLGVEALEHLSPGEQLRGDCMYAPLLGVPPAVRPTPCAPLAECKGSLLDDSAGKSTEDTAEYSPFKGGYTKGLEGESLGCSGSAAAGSSGTLELPSTLSLYKSGALDEAAAYQSRDYYNFPLALAGPPPPPPPPHPHARIKLENPLDYGSAWAAAAAQCRYGDLASLHGAGAAGPGSGSPSAAASSSWHTLFTAEEGQLYGPCGGGGGGGGGGGGGGGGGGGGGGGEAGAVAPYGYTRPPQGLAGQESDFTAPDVWYPGGMVSRVPYPSPTCVKSEMGPWMDSYSGPYGDMRLETARDHVLPIDYYFPPQKTCLICGDEASGCHYGALTCGSCKVFFKRAAEGKQKYLCASRNDCTIDKFRRKNCPSCRLRKCYEAGMTLGARKLKKLGNLKLQEEGEASSTTSPTEETTQKLTVSHIEGYECQPIFLNVLEAIEPGVVCAGHDNNQPDSFAALLSSLNELGERQLVHVVKWAKALPGFRNLHVDDQMAVIQYSWMGLMVFAMGWRSFTNVNSRMLYFAPDLVFNEYRMHKSRMYSQCVRMRHLSQEFGWLQITPQEFLCMKALLLFSIIPVDGLKNQKFFDELRMNYIKELDRIIACKRKNPTSCSRRFYQLTKLLDSVQPIARELHQFTFDLLIKSHMVSVDFPEMMAEIISVQVPKILSGKVKPIYFHTQ
notes: also called androgen receptor; ARFL
binding result [1]: no binding | binding result [2]: no binding

From patent publication US20210003577A1 (MAYO FOUNDATION FOR MEDICAL EDUCATION AND RESEARCH, published 2021)
